Molecular target: RAGE^23-341-His-FLAG (extracellular part of RAGE) (human (cDNA from HEK293T cells)) (UniProt Q15109)
Test: pull-down

RAGE^23-341-His-FLAG (extracellular part of RAGE) (human (cDNA from HEK293T cells)), sequence (Q15109 23-341): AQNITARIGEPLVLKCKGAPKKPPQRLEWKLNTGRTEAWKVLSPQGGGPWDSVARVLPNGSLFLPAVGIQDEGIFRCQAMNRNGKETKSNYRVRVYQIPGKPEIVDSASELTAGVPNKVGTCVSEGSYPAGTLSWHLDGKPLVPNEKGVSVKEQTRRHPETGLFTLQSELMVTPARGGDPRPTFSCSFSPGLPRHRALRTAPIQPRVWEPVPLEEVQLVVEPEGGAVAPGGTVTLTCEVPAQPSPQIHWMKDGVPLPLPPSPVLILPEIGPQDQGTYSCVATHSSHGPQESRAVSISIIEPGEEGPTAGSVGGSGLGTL

- fold of histone complex precipitated, against RAGE^124-341: 2.4 fold
Substance: core histone complex purified from bovines

— doi:10.1101/2024.09.03.610921
